The test addresses human IgG. In words: bio-layer interferometry. Background: Biolayer interferometry detects binding as a change in optical thickness at a sensor tip.

B1: recombinant monoclonal low affinity rheumatoid factor RF^low (human IgM; RC1 of Youngblood et al. 1994) (antibody, V domains shown)
VH: QVQLVQSGGGVVQPGRSLRLSCAASGFTFSSYAMHWVRQAPGKGLEWVAVISYDGSNKYYAESVKGRFTISRDNSKNTLYLRMNSLRTEETAVYYCARDGDVGSYGPGTYYPIDYWGQGTLVSVSP
VL: EIVLTQSPATLSLSPGERATLSCRASQSVSSYLAWYQEKPGTAPRLLIYDASNRATGIPARFSGSGSGTDFTLTISSLEPEDFAVYYCQQRRNWPLTFGPGTKVDIK
In general, Kd refers to the free concentration of one partner at which half of the binding sites on the other are occupied at equilibrium, for simple one-to-one binding. Low readings indicate tighter binding, high ones weaker binding. Turning to B1, the Kd came to 100 nM.

The values are drawn from patent US20250326863A1.
